Target: Recombinant Human TNF-α/TNFSF1A (human, UniProt P01375 77-233)
Test: cell-based or functional assay

Chain of Recombinant Human TNF-α/TNFSF1A (P01375 77-233 limits assumed): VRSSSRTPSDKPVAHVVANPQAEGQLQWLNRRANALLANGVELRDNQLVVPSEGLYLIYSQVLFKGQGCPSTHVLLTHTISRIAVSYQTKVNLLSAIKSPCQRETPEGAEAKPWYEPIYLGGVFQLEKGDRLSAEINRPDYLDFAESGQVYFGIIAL

Row | Binder | N-Terminal VD huTNFα Neutralization Assay IC50 [nM] | C-Terminal VD huTNFα Neutralization Assay IC50 [nM]
1 | DVD3204 (bispecific antibody, IgG1) VH: EVQLVESGGGLVQPGGSLRLSCAASGFTFSNYGVTWVRQAPGKGLEWVSMIWADGSTHYASSVKGRFTISRDNSKNTLYLQMNSLRAEDTAVYYCAREWQHGPVAYWGQGTLVTVSSASTKGPEVQLVESGGGLVQPGGSLRLSCAASGFSFSKYWLGWVRQAPGKGLEWVSDIYPGYDYTHYNEKFKDRFTISADTSKNTAYLQMNSLRAEDTAVYYCARSDGSSTYWGQGTLVTVSS VL: DIQMTQSPSSLSASVGDRVTITCRASQLVSSAVAWYQQKPGKAPKLLIYWASARHTGVPSRFSGSGSGTDFTLTISSLQPEDFATYYCQQHYKTPFTFGQGTKLEIKRTVAAPDIQMTQSPSSLSASVGDRVTITCTSSQNIVHSNGNTYLEWYQQKPGKAPKLLIYKVSNRFSGVPSRFSGSGSGTDFTLTISSLQPEDFATYYCFQVSHVPYTFGQGTKVEIKR | 0.001 | –
2 | DVD2801 (bispecific antibody, IgG1) VH: EVQLVQSGAEVKKPGASVKVSCKASGYTFTKYWLGWVRQAPGQGLEWMGDIYPGYDYTHYNEKFKDRVTLTTDTSTSTAYMELRSLRSDDTAVYYCARSDGSSTYWGQGTLVTVSSASTKGPEVQLVQSGAEVKKPGASVKVSCKASGYTFANYGIIWVRQAPGQGLEWMGWINTYTGKPTYAQKFQGRVTMTTDTSTSTAYMELSSLRSEDTAVYYCARKLFTTMDVTDNAMDYWGQGTTVTVSS VL: DVLMTQTPLSLPVTPGEPASISCTSSQNIVHSNGNTYLEWYLQKPGQSPQLLIYKVSNRFSGVPDRFSGSGSGTDFTLKISRVEAEDVGVYYCFQVSHVPYTFGGGTKVEIKRTVAAPSVFIFPPDIQMTQSPSSLSASVGDRVTITCRASQDISQYLNWYQQKPGKAPKLLIYYTSRLQSGVPSRFSGSGSGTDFTLTISSLQPEDFATYFCQQGNTWPPTFGQGTKLEIKR | – | 0.116
3 | DVD3026 (bispecific antibody, IgG1) VH: EVQLVQSGAEVKKPGASVKVSCKASGYTFTKYWLGWVRQAPGQGLEWMGDIYPGYDYTHYNEKFKDRVTLTTDTSTSTAYMELRSLRSDDTAVYYCARSDGSSTYWGQGTLVTVSSASTKGPEVQLVQSGAEVKKPGASVKVSCKASGYTFNNYGIIWVRQAPGQGLEWMGWINTYTGKPTYAQKFQGRVTMTTDTSTSTAYMELSSLRSEDTAVYYCARKLFNTVAVTDNAMDYWGQGTTVTVSS VL: DVLMTQTPLSLPVTPGEPASISCTSSQNIVHSNGNTYLEWYLQKPGQSPQLLIYKVSNRFSGVPDRFSGSGSGTDFTLKISRVEAEDVGVYYCFQVSHVPYTFGGGTKVEIKRTVAAPSVFIFPPDIQMTQSPSSLSASVGDRVTITCRASQDIENYLNWYQQKPGKAPKLLIYYTSRLQSGVPSRFSGSGSGTDFTLTISSLQPEDFATYFCQQGNTQPPTFGQGTKLEIKR | – | 0.038
4 | DVD3024 (bispecific antibody, IgG1) VH: EVQLVQSGAEVKKPGASVKVSCKASGYTFTKYWLGWVRQAPGQGLEWMGDIYPGYDYTHYNEKFKDRVTLTTDTSTSTAYMELRSLRSDDTAVYYCARSDGSSTYWGQGTLVTVSSASTKGPEVQLVQSGAEVKKPGASVKVSCKASGYTFNNYGIIWVRQAPGQGLEWMGWINTYTGKPTYAQKFQGRVTMTTDTSTSTAYMELSSLRSEDTAVYYCARKLFNTVAVTDNAMDYWGQGTTVTVSS VL: DVLMTQTPLSLPVTPGEPASISCTSSQNIVHSNGNTYLEWYLQKPGQSPQLLIYKVSNRFSGVPDRFSGSGSGTDFTLKISRVEAEDVGVYYCFQVSHVPYTFGGGTKVEIKRTVAAPDIQMTQSPSSLSASVGDRVTITCRASQDIENYLNWYQQKPGKAPKLLIYYTSRLQSGVPSRFSGSGSGTDFTLTISSLQPEDFATYFCQQGNTQPPTFGQGTKLEIKR | – | 0.934
5 | DVD3203 (bispecific antibody, IgG1) VH: EVQLVESGGGLVQPGGSLRLSCAASGFTFSNYGVTWVRQAPGKGLEWVSMIWADGSTHYASSVKGRFTISRDNSKNTLYLQMNSLRAEDTAVYYCAREWQHGPVAYWGQGTLVTVSSGGGGSGGGGSEVQLVESGGGLVQPGGSLRLSCAASGFSFSKYWLGWVRQAPGKGLEWVSDIYPGYDYTHYNEKFKDRFTISADTSKNTAYLQMNSLRAEDTAVYYCARSDGSSTYWGQGTLVTVSS VL: DIQMTQSPSSLSASVGDRVTITCRASQLVSSAVAWYQQKPGKAPKLLIYWASARHTGVPSRFSGSGSGTDFTLTISSLQPEDFATYYCQQHYKTPFTFGQGTKLEIKRGGSGGGGSGDIQMTQSPSSLSASVGDRVTITCTSSQNIVHSNGNTYLEWYQQKPGKAPKLLIYKVSNRFSGVPSRFSGSGSGTDFTLTISSLQPEDFATYYCFQVSHVPYTFGQGTKVEIKR | 0.071 | –
6 | DVD3018 (bispecific antibody, IgG1) VH: EVQLVQSGAEVKKPGASVKVSCKASGYTFNNYGIIWVRQAPGQGLEWMGWINTYTGKPTYAQKFQGRVTMTTDTSTSTAYMELSSLRSEDTAVYYCARKLFNTVAVTDNAMDYWGQGTTVTVSSGGGGSGGGGSEVQLVQSGAEVKKPGASVKVSCKASGYTFTKYWLGWVRQAPGQGLEWMGDIYPGYDYTHYNEKFKDRVTLTTDTSTSTAYMELRSLRSDDTAVYYCARSDGSSTYWGQGTLVTVSS VL: DIQMTQSPSSLSASVGDRVTITCRASQDIENYLNWYQQKPGKAPKLLIYYTSRLQSGVPSRFSGSGSGTDFTLTISSLQPEDFATYFCQQGNTQPPTFGQGTKLEIKRGGSGGGGSGDVLMTQTPLSLPVTPGEPASISCTSSQNIVHSNGNTYLEWYLQKPGQSPQLLIYKVSNRFSGVPDRFSGSGSGTDFTLKISRVEAEDVGVYYCFQVSHVPYTFGGGTKVEIKR | 0.008 | –
7 | DVD3023 (bispecific antibody, IgG1) VH: EVQLVQSGAEVKKPGASVKVSCKASGYTFTKYWLGWVRQAPGQGLEWMGDIYPGYDYTHYNEKFKDRVTLTTDTSTSTAYMELRSLRSDDTAVYYCARSDGSSTYWGQGTLVTVSSGGGGSGGGGSEVQLVQSGAEVKKPGASVKVSCKASGYTFNNYGIIWVRQAPGQGLEWMGWINTYTGKPTYAQKFQGRVTMTTDTSTSTAYMELSSLRSEDTAVYYCARKLFNTVAVTDNAMDYWGQGTTVTVSS VL: DVLMTQTPLSLPVTPGEPASISCTSSQNIVHSNGNTYLEWYLQKPGQSPQLLIYKVSNRFSGVPDRFSGSGSGTDFTLKISRVEAEDVGVYYCFQVSHVPYTFGGGTKVEIKRGGSGGGGSGDIQMTQSPSSLSASVGDRVTITCRASQDIENYLNWYQQKPGKAPKLLIYYTSRLQSGVPSRFSGSGSGTDFTLTISSLQPEDFATYFCQQGNTQPPTFGQGTKLEIKR | – | 0.203
8 | DVD3019 (bispecific antibody, IgG1) VH: EVQLVQSGAEVKKPGASVKVSCKASGYTFNNYGIIWVRQAPGQGLEWMGWINTYTGKPTYAQKFQGRVTMTTDTSTSTAYMELSSLRSEDTAVYYCARKLFNTVAVTDNAMDYWGQGTTVTVSSASTKGPEVQLVQSGAEVKKPGASVKVSCKASGYTFTKYWLGWVRQAPGQGLEWMGDIYPGYDYTHYNEKFKDRVTLTTDTSTSTAYMELRSLRSDDTAVYYCARSDGSSTYWGQGTLVTVSS VL: DIQMTQSPSSLSASVGDRVTITCRASQDIENYLNWYQQKPGKAPKLLIYYTSRLQSGVPSRFSGSGSGTDFTLTISSLQPEDFATYFCQQGNTQPPTFGQGTKLEIKRTVAAPDVLMTQTPLSLPVTPGEPASISCTSSQNIVHSNGNTYLEWYLQKPGQSPQLLIYKVSNRFSGVPDRFSGSGSGTDFTLKISRVEAEDVGVYYCFQVSHVPYTFGGGTKVEIKR | 0.009 | –
9 | DVD3022 (bispecific antibody, IgG1) VH: EVQLVQSGAEVKKPGASVKVSCKASGYTFNNYGIIWVRQAPGQGLEWMGWINTYTGKPTYAQKFQGRVTMTTDTSTSTAYMELSSLRSEDTAVYYCARKLFNTVAVTDNAMDYWGQGTTVTVSSASTKGPSVFPLAPEVQLVQSGAEVKKPGASVKVSCKASGYTFTKYWLGWVRQAPGQGLEWMGDIYPGYDYTHYNEKFKDRVTLTTDTSTSTAYMELRSLRSDDTAVYYCARSDGSSTYWGQGTLVTVSS VL: DIQMTQSPSSLSASVGDRVTITCRASQDIENYLNWYQQKPGKAPKLLIYYTSRLQSGVPSRFSGSGSGTDFTLTISSLQPEDFATYFCQQGNTQPPTFGQGTKLEIKRTVAAPDVLMTQTPLSLPVTPGEPASISCTSSQNIVHSNGNTYLEWYLQKPGQSPQLLIYKVSNRFSGVPDRFSGSGSGTDFTLKISRVEAEDVGVYYCFQVSHVPYTFGGGTKVEIKR | 0.016 | –
10 | DVD3021 (bispecific antibody, IgG1) VH: EVQLVQSGAEVKKPGASVKVSCKASGYTFNNYGIIWVRQAPGQGLEWMGWINTYTGKPTYAQKFQGRVTMTTDTSTSTAYMELSSLRSEDTAVYYCARKLFNTVAVTDNAMDYWGQGTTVTVSSASTKGPEVQLVQSGAEVKKPGASVKVSCKASGYTFTKYWLGWVRQAPGQGLEWMGDIYPGYDYTHYNEKFKDRVTLTTDTSTSTAYMELRSLRSDDTAVYYCARSDGSSTYWGQGTLVTVSS VL: DIQMTQSPSSLSASVGDRVTITCRASQDIENYLNWYQQKPGKAPKLLIYYTSRLQSGVPSRFSGSGSGTDFTLTISSLQPEDFATYFCQQGNTQPPTFGQGTKLEIKRTVAAPSVFIFPPDVLMTQTPLSLPVTPGEPASISCTSSQNIVHSNGNTYLEWYLQKPGQSPQLLIYKVSNRFSGVPDRFSGSGSGTDFTLKISRVEAEDVGVYYCFQVSHVPYTFGGGTKVEIKR | 0.007 | –
11 | DVD2802 (bispecific antibody, IgG1) VH: EVQLVQSGAEVKKPGASVKVSCKASGYTFTKYWLGWVRQAPGQGLEWMGDIYPGYDYTHYNEKFKDRVTLTTDTSTSTAYMELRSLRSDDTAVYYCARSDGSSTYWGQGTLVTVSSASTKGPSVFPLAPEVQLVQSGAEVKKPGASVKVSCKASGYTFANYGIIWVRQAPGQGLEWMGWINTYTGKPTYAQKFQGRVTMTTDTSTSTAYMELSSLRSEDTAVYYCARKLFTTMDVTDNAMDYWGQGTTVTVSS VL: DVLMTQTPLSLPVTPGEPASISCTSSQNIVHSNGNTYLEWYLQKPGQSPQLLIYKVSNRFSGVPDRFSGSGSGTDFTLKISRVEAEDVGVYYCFQVSHVPYTFGGGTKVEIKRTVAAPDIQMTQSPSSLSASVGDRVTITCRASQDISQYLNWYQQKPGKAPKLLIYYTSRLQSGVPSRFSGSGSGTDFTLTISSLQPEDFATYFCQQGNTWPPTFGQGTKLEIKR | – | 0.195
12 | DVD3027 (bispecific antibody, IgG1) VH: EVQLVQSGAEVKKPGASVKVSCKASGYTFTKYWLGWVRQAPGQGLEWMGDIYPGYDYTHYNEKFKDRVTLTTDTSTSTAYMELRSLRSDDTAVYYCARSDGSSTYWGQGTLVTVSSASTKGPSVFPLAPEVQLVQSGAEVKKPGASVKVSCKASGYTFNNYGIIWVRQAPGQGLEWMGWINTYTGKPTYAQKFQGRVTMTTDTSTSTAYMELSSLRSEDTAVYYCARKLFNTVAVTDNAMDYWGQGTTVTVSS VL: DVLMTQTPLSLPVTPGEPASISCTSSQNIVHSNGNTYLEWYLQKPGQSPQLLIYKVSNRFSGVPDRFSGSGSGTDFTLKISRVEAEDVGVYYCFQVSHVPYTFGGGTKVEIKRTVAAPDIQMTQSPSSLSASVGDRVTITCRASQDIENYLNWYQQKPGKAPKLLIYYTSRLQSGVPSRFSGSGSGTDFTLTISSLQPEDFATYFCQQGNTQPPTFGQGTKLEIKR | – | 0.076
